Reference: the nanobody polyreactivity screen of Harvey et al. (2022)

Experiment: yeast display, Sf9 membrane polyspecificity reagent, FACS + sequencing; frameworks hold sequencing errors
Procedure, shortened: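 Genes from sorted yeast were amplified by colony PCR, read by MiSeq 2 × 250 sequencing and filtered on CDR length. These cells carried a synthetic nanobody library in Saccharomyces cerevisiae BJ5465 and were sorted by FACS into low and high (top ~1%) gates on anti-HA and streptavidin fluorescence. Polyreactivity is labelled according to the gate of origin.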

Sequence | polyreactivity (PSR sort gate)
QVQLVESGGGLVQEGGSLRLSCAASGILVYNAMGWYRQAPGTERELVAAISARGGRTYYADSVKGRFTISRDNAQNTDSLQMNSLKPEDTAVYYCASRSSKSRTYDYWGQGTQVTVSS | high polyreactivity
QVQLVESGGGLVQEGGSLRLSCAASGITFSRNAMGWYRPAPGKERELVATITSGGSTNYADSVKGRFTISRDNAKNNVYLQMNSLKPEDTAVYYCNAVWNTFISGRSYDYWGQGTQVTVSS | low polyreactivity
QVQLVESGGGLVQEGGSLRLSCAASGLIFGAYALGWYRQAPGKERELVAAISGRGGSTYYADSVKGRFTISHDNAKNTVYLQMNSLKPEDNAVYYCAAPWRYTYYYWGQGTQVTVSS | high polyreactivity
QVQLVESGGGLVQEGGSLRLSCAASGLIFNRYDMGWYRQAPGKVTELVAAITSRGGRTYYADSVKGRFTISLDNAKTTVYLQMNSLKPEDTAVYYCNRTPTGSSLYGMDYWGQGTQVTVSS | high polyreactivity
QVQLVESGGGLVQEGGSLRLSCAASGLIFSYYAMGWYRQAPGKERELVAAISWSGASTFYADSVKGRFTISRDNAKNTVYLQMNSLKPEDTAVYYCAADTYGKTYYYWGQGTLVTVSS | low polyreactivity
QVQLVESGGGLVQEGGSLRLSCAASGLTFPYYAMGWYRQAPGKERELVAGISDSGGSTYYADSVKGRFTISRDNAKNTVYVQMNSLKPEDTAVYYCAAQGVDSYYENVYWGQGSQVTVSS | high polyreactivity
QVQLVESGGGLVQEGGSLRLSCAASGRIFPYYAMGWYRQAPGKERELVAAITSGSRTYYADSVKGRFTISRDNAKNTVYLQMNSLKPEHTAVYYCNAVGGNSAYVYWGQGTQVTVSS | high polyreactivity
QVQLVESGGGLVQEGGSLRLSCAASGRIFQWNAMGWYRQAPGKERELVATISSRGGSTYYADSVKGRFTISRDNAKNTVYLQMNSLKPEDTAVYYCAARYYAKYRSYDYWGQGTQVTVSS | high polyreactivity
QVQLVESGGGLVQEGGSLRLSCAASGRIFRRYTMGWYRQAPGKERELVAVITSGGNTHYADSVKGRFTISRDNAKNTVYLQMNSLKPEDTAVYYCAARHYRGSNDYWGQGTQVTVSS | high polyreactivity
QVQLVESGGGLVQEGGSLRLSCAASGRIFWSYAMGWYRQAPGKERELVAAITWRTGRTYYADSVKGRFTISRDNAKNTVYLQMNSLKPEDTAVYYCAAEGYLGGQSYNGLNYDSWGQGTQVTVSS | low polyreactivity
QVQLVESGGGLVQEGGSLRLSCAASGRTFGYYVMGWYRQAPGKERELVAAISNTDSTYYADSVKGRFTISRDNAKNSVYLQMNSLKPEDTAVYYCDKDGRTVAYTWTRTHYYWGQGTQVTVSS | low polyreactivity
QVQLVESGGGLVQEGGSLRLSCAASGSIFVLYAMGWYRQAPGKERQLVAAINYEGASTYYADSVKGRFTISRDNAKITVYLQMNSLKPEDKAVFYCAARWQFNIDVQLYLFEYWGQGTQVTVSS | low polyreactivity
QVQLVESGGGLVQEGGSLRLSCAASGSTFDSNAMGWYRQAPGTERELVAAIDWSGGSTYYADSVKGRFTISRDNAKNSVYLQMNSLKPEDTAVYYCAADDYSSNYGDFDYWGQGTQVTVSS | low polyreactivity
QVQLVESGGGLVQEGGSLRLSCAASGSTFEYNAMGWDRQAPGKEREFVAAISRTGSRTYYADSVKGRFTISRDNAKNTVFLQMNSLIPEDTAVYYCASVKSRLQVGYYSWGQGTQVTVSS | high polyreactivity
QVQLVESGGGLVQEGGSLRLSCAASGSTFGVYSMGWYRQAPGKERELVAAISYTGGSTYYADSVKGRFTISRDNAKNSVYLQMNSLKPEDTGVFYCAVEVGYTDSPYSYDYWGEGTQVTVSS | low polyreactivity
QVQLVESGGGLVQEGGSLRLSCAASGSTFTTNVMGWYRQAPGKERELVAAISWSSGSTYYADSVTGRFTISRDNAKNTVYLQMNSLKPEDTAVYYCAARLVIFYPYSRYYYWGQGTQVTVSS | high polyreactivity
QVQLVESGGGLVQEGGSLRLSCAASGSTFTYYAMGWYRQAPGKERELVAAISRSGGNTYYADSVKGRFTISRDNAKNTVYLQMNSLKPEDTAVYYCAAYRQVYGFDYWGQGTQVTVSS | high polyreactivity
